Target: ligand-binding domain (LBD) of rat GluK1 (rat)
Experiment: crystal structure

stoichiometry N: 2
Substance: ligand-binding domain (LBD) of rat GluK1 (domain or fragment)

Reference: doi:10.1101/2023.11.02.565302
